The results in this text go back to patent US5405758.

Where only a bound is given, the exact number is not on record here.

For this assay, the target named is mite allergen fused protein expressed by pAEX201 in E. coli pop2136 (purified recombinant mite allergen fused protein) (Dermatophagoides farinae). The settings on record: scale: times lower concentration at the inflexion point than the crude mite body antigen.

For the substance “blood cells from a mite asthma patient, washed with Hanks' solution (cells without a defined receptor)”, the histamine release, percent ratio of the released histamine (HPLC) is above 200.
